Like-named read-outs stand apart in the source and are kept apart here.
Columns and labels:
human TSLP [1] = target: T1, human TSLP (human, UniProt Q969D9 29-159); assay: SPR, hTSLP
T1 construct: also called hTSLP; hTSP

cyno TSLP [2] = target: T2, cyno TSLP (cynomolgus monkey, UniProt A0A7N9CAT7 29-159); assay: SPR, cyno TSLP
T2 construct: also called cynomolgus monkey TSLP

human TSLP [3] = target: T1, human TSLP; assay: AlphaScreen; hTSLP:hTSLPR:hIL7Rα ternary complex
hTSLP-Fc [4] = target: T3, hTSLP-Fc (human, UniProt Q969D9 29-159); assay: cell-based or functional assay
cyno TSLP-Fc [5] = target: T4, cyno TSLP-Fc (cynomolgus monkey, UniProt A0A7N9CAT7 29-159); assay: cell-based or functional assay
human TSLP [6] = target: T1, human TSLP; assay: AlphaScreen, purified ISVD; hTSLP to hTSLPR
hTSLP-Fc [7] = target: T3, hTSLP-Fc; assay: SPR (BIAcore T100), Fc fusion captured by anti-huIgG
cyno TSLP-Fc [8] = target: T4, cyno TSLP-Fc; assay: as above
human TSLP [9] = target: T1, human TSLP; assay: AlphaScreen, purified ISVD; hTSLP:hTSLPR:hIL7Rα ternary complex
hTSLP-Fc [10] = target: T3, hTSLP-Fc; assay: SPR (ProteOn XPR36), periplasmic extract over immobilised Fc fusion
cyno TSLP-Fc [11] = target: T4, cyno TSLP-Fc; assay: as above
human TSLP [12] = target: T1, human TSLP; assay: SPR, hTSLP; remark: listed apart in the source
cyno TSLP [13] = target: T2, cyno TSLP; assay: SPR, cyno TSLP; remark: listed apart in the source
hTSLP-Fc [14] = target: T3, hTSLP-Fc; assay: SPR, hTSLP-hFc
cyno TSLP-Fc [15] = target: T4, cyno TSLP-Fc; assay: SPR, cyno TSLP-hFc
cyno TSLP-Fc [16] = target: T4, cyno TSLP-Fc; assay: SPR; the KD column is on cyno TSLP-hFc
human IL-13 [17] = target: T5, human IL-13 (human, UniProt P35225 35-146, limits assumed); assay: SPR, hIL-13
T5 construct: Biotinylated in the binary complex AlphaScreen; Different commercial lots are kept as one molecule; also called hIL-13; hIL13

human IL-13 [18] = target: T5, human IL-13; assay: cell-based or functional assay
human IL-13 [19] = target: T5, human IL-13; assay: AlphaScreen, purified ISVD; hIL-13 to hIL-13Rα1-hFc
hIL13-Fc = target: T6, hIL13-Fc (human, UniProt P35225 25-146); assay: SPR (ProteOn XPR36), periplasmic extract over immobilised Fc fusion
T6 construct: not shown: Fc part and any linker not described

cyno IL13-Fc = target: T7, cyno IL13-Fc (cynomolgus monkey, UniProt Q0PW92 11-132); assay: as above
T7 construct: not shown: Fc part and any linker not described

human IL-13 [20] = target: T5, human IL-13; assay: AlphaScreen, purified ISVD; hIL-13:hIL-13Rα1:hIL4Rα ternary complex
human IL-13 [21] = target: T5, human IL-13; assay: SPR, hIL-13 from Peprotech (cat nr 200-13)
human IL-13 [22] = target: T5, human IL-13; assay: cell-based or functional assay; remark: listed apart in the source
human IL-13 [23] = target: T5, human IL-13; assay: SPR, hIL-13 from Peprotech (cat nr 200-13); remark: listed apart in the source
human IL-13 [24] = target: T5, human IL-13; assay: cell-based or functional assay; remark: listed apart in the source
human IL-13 [25] = target: T5, human IL-13; assay: AlphaScreen; hIL-13 to hIL-13Rα1-hFc
human IL-13 [26] = target: T5, human IL-13; assay: AlphaScreen; hIL-13:hIL-13Rα1:hIL4Rα ternary complex
cyno IL-13 [27] = target: T8, cyno IL-13 (cynomolgus monkey, UniProt Q0PW92 21-132); assay: cell-based or functional assay
human IL-13 [28] = target: T5, human IL-13; assay: cell-based or functional assay; remark: listed apart in the source
cyno IL-13 [29] = target: T8, cyno IL-13; assay: cell-based or functional assay; remark: listed apart in the source

B1: F010704076 (VHH)
VHH: EVQLVESGGGLVQPGGSLRLSCAASGSGFGVNILYWYRQAAGIERELIASITSGGITNYVDSVKGRFTISRDNSENTMYLQMNSLRAEDTGVYYCASRNIFDGTTEWGQGTLVTVSS
notes: E. coli, IMAC; also called F0107501A02 (A14P, E16G, A74S, K83R)
koff (human TSLP [1]): 6.2e-05 s⁻¹ | koff (cyno TSLP [2]): 0.0016 s⁻¹ | IC50 (human TSLP [3]): 0.27 nM

B2: F027400160 (VHH)
VHH: EVQLVESGGGVVQPGGSLRLSCAASGSGFGVNILYWYRQAAGIERELIASITSGGITNYVDSVKGRFTISRDNSENTMYLQMNSLRAEDTGLYYCASRNIFDGTTEWGQGTLVTVSS
notes: E. coli, IMAC; also called F0107501A02 (L11V, A14P, E16G, A74S, K83R, V89L)
koff (human TSLP [1]): 0.00012 s⁻¹ | koff (cyno TSLP [2]): 0.0043 s⁻¹

B3: F0107501A02 (VHH)
VHH: EVQLVESGGGLVQAGESLRLSCAASGSGFGVNILYWYRQAAGIERELIASITSGGITNYVDSVKGRFTISRDNAENTMYLQMNSLKAEDTGVYYCASRNIFDGTTEWGQGTLVTVSS
notes: Wild-type anti-TSLP ISVD; not shown: c-myc, His6 tag of the purified protein
koff (human TSLP [1]): 5.4e-05 s⁻¹ | koff (cyno TSLP [2]): 0.0015 s⁻¹ | IC50, TSLP-induced BaF3 cell proliferation assay (hTSLP-Fc [4]): > 1000 nM | IC50, TSLP-induced BaF3 cell proliferation assay (cyno TSLP-Fc [5]): > 1000 nM | IC50 (human TSLP [6]): 0.3 nM | IC50 (human TSLP [3]): 0.28 nM | Kd (hTSLP-Fc [7]): 0.51 nM | koff (hTSLP-Fc [7]): 5.7e-05 s⁻¹ | kon (hTSLP-Fc [7]): 110000 M⁻¹ s⁻¹ | Kd (cyno TSLP-Fc [8]): 25 nM | koff (cyno TSLP-Fc [8]): 0.0018 s⁻¹ | kon (cyno TSLP-Fc [8]): 73000 M⁻¹ s⁻¹ | IC50 (human TSLP [9]): 0.35 nM | koff (hTSLP-Fc [10]): 3.6e-05 s⁻¹ | koff (cyno TSLP-Fc [11]): 0.00066 s⁻¹

B4: F010704099 (VHH)
VHH: EVQLVESGGGLVQPGGSLRLSCAASGFTFADYDYDIGWFRQAPGKEREGVSCISNRDGSTYYADSVKGRFTISRDNSKNTVYLQMNSLRPEDTAVYYCAVEIHCDDYGVENFDFDPWGQGTLVTVSS
notes: E. coli, IMAC; also called F0107529F10 (A14P, T60A, S71R, A74S, S79Y, K83R)
koff (human TSLP [12]): 7.7e-05 s⁻¹ | koff (cyno TSLP [13]): 0.0018 s⁻¹ | Kd (hTSLP-Fc [14]): 0.038 nM | Kd (cyno TSLP-Fc [15]): 3.3 nM | fold lower affinity against parental ISVD F0107529F10 (cyno TSLP-Fc [16]): 2 fold

B5: F0107004B06 (VHH)
VHH: EVQLVESGGGLVQPGGSLRLSCAASGFTFNNYAMKWVRQAPGKGLEWVSSITTGGGSTDYADSVKGRFTISRDNRKNTLYLQMNSLKPEDTAVYYCANVPFGYYSEHFSGLSFDYRGQGTLVTVSS
notes: Wild-type anti-IL-13 ISVD; also called F010704B06; F107004B06; not shown: c-myc, His6 tag of the purified protein
Kd (human IL-13 [17]): 26 nM | koff (human IL-13 [17]): 0.0033 s⁻¹ | kon (human IL-13 [17]): 250000 M⁻¹ s⁻¹ | IC50, IL-13-induced TF-1 proliferation assay (human IL-13 [18]): 10000 nM | IC50 (human IL-13 [19]): 61 nM | koff (hIL13-Fc): 0.0063 s⁻¹ | koff (cyno IL13-Fc): 0.0089 s⁻¹ | IC50 (human IL-13 [20]): 6.7 nM

B6: F027100183 (VHH)
VHH: EVQLVESGGGVVQPGGSLRLSCAASGFTFNNYAMKWVRQAPGKGLEWVSSITTGGGSTDYADSVKGRFTISRDNSKNTLYLQMNSLRPEDTALYYCANVPFGYYSEHFSGLSFDYRGQGTLVTVSS
notes: E. coli, IMAC; also called F0107004B06 (L11V, R74S, K83R, V89L)
Kd (human IL-13 [21]): 27 nM | koff (human IL-13 [21]): 0.0075 s⁻¹ | kon (human IL-13 [21]): 280000 M⁻¹ s⁻¹

B7: F027100019 (VHH)
VHH: DVQLVESGGGVVQPGGSLRLSCAASGRTFSSYRMGWFRQAPGKEREFVAALSGDGYSTYTANSVKGRFTISRDNSKNTVYLQMNSLRPEDTALYYCAAKLQYVSGWSYDYPYWGQGTLVTVSS
notes: Expressed in E. coli, purified by IMAC; also called F0107004B02 (E1D, L11V, A14P, N64K, S65G, A74S, K83R, I89L)
IC50 (nM) Eotaxin release assay (human IL-13 [22]): 47 nM | Kd (human IL-13 [23]): 34 nM | koff (human IL-13 [23]): 0.0012 s⁻¹ | kon (human IL-13 [23]): 35000 M⁻¹ s⁻¹

B8: F010700003 (bispecific antibody)
chain: EVQLVESGGGLVQPGGSLRLSCAASGFTFNNYAMKWVRQAPGKGLEWVSSITTGGGSTDYADSVKGRFTISRDNRKNTLYLQMNSLKPEDTAVYYCANVPFGYYSEHFSGLSFDYRGQGTLVTVSSGGGGSGGGGSGGGGSGGGGSGGGGSGGGGSGGGGSEVQLVESGGGLVQAGGSLRLSCAASGRTFSSYRMGWFRQAPGKEREFVAALSGDGYSTYTANSVNSRFTISRDNAKNTVYLQMNSLKPEDTAIYYCAAKLQYVSGWSYDYPYWGQGTLVTVSS
notes: Biparatopic anti-IL-13 construct of two VHHs, expressed in Pichia pastoris as FLAG3-HIS6-tagged protein; also called F0107004B06-35GS-F0107004B02; not shown: FLAG3-HIS6 tag
IC50, TF1 proliferation assay, 200 pM hIL13 (human IL-13 [24]): 1.2e-08 M | % inhibition (human IL-13 [25]): 99% | IC50 (human IL-13 [25]): 0.13 nM | % inhibition (human IL-13 [26]): 100% | IC50 (human IL-13 [26]): 3.4 nM

B9: F010700031 (VHH)
chain: EVQLVESGGGLVQPGGSLRLSCAASGFTFNNYAMKWVRQAPGKGLEWVSSITTGGGSTDYADSVKGRFTISRDNRKNTLYLQMNSLKPEDTAVYYCANVPFGYYSEHFSGLSFDYRGQGTLVTVSSGGGGSGGGGSGGGGSGGGGSGGGGSGGGGSGGGGSEVQLVESGGGLVQPGGSLRLSCAASGFTFNNYAMKWVRQAPGKGLEWVSSITTGGGSTDYADSVKGRFTISRDNRKNTLYLQMNSLKPEDTAVYYCANVPFGYYSEHFSGLSFDYRGQGTLVTVSS
notes: Bivalent anti-IL-13 construct of two VHHs, Pichia pastoris, FLAG3-HIS6-tagged; also called F0107004B06-35GS-F0107004B06; not shown: FLAG3-HIS6 tag
IC50, TF1 proliferation assay, 200 pM hIL13 (human IL-13 [24]): 1e-07 M | % inhibition (human IL-13 [26]): 99% | IC50 (human IL-13 [26]): 0.66 nM

B10: F010700014 (VHH)
chain: EVQLVESGGGLVQAGGSLRLSCAASGRTFSSYRMGWFRQAPGKEREFVAALSGDGYSTYTANSVNSRFTISRDNAKNTVYLQMNSLKPEDTAIYYCAAKLQYVSGWSYDYPYWGQGTLVTVSSGGGGSGGGGSGGGGSGGGGSGGGGSGGGGSGGGGSEVQLVESGGGLVQAGGSLRLSCAASGRTFSSYRMGWFRQAPGKEREFVAALSGDGYSTYTANSVNSRFTISRDNAKNTVYLQMNSLKPEDTAIYYCAAKLQYVSGWSYDYPYWGQGTLVTVSS
notes: Bivalent anti-IL-13 construct of two VHHs, Pichia pastoris, FLAG3-HIS6-tagged; also called F0107004B02-35GS-F0107004B02; not shown: FLAG3-HIS6 tag
IC50, TF1 proliferation assay, 200 pM hIL13 (human IL-13 [24]): 9.4e-08 M | % inhibition (human IL-13 [25]): 84% | IC50 (human IL-13 [25]): 0.27 nM | % inhibition (human IL-13 [26]): 98% | IC50 (human IL-13 [26]): 4.8 nM

B11: F010700029 (bispecific antibody)
chain: EVQLVESGGGLVQAGGSLRLSCAASGRTFSSYRMGWFRQAPGKEREFVAALSGDGYSTYTANSVNSRFTISRDNAKNTVYLQMNSLKPEDTAIYYCAAKLQYVSGWSYDYPYWGQGTLVTVSSGGGGSGGGGSGGGGSGGGGSGGGGSGGGGSGGGGSEVQLVESGGGLVQPGGSLRLSCAASGFTFNNYAMKWVRQAPGKGLEWVSSITTGGGSTDYADSVKGRFTISRDNRKNTLYLQMNSLKPEDTAVYYCANVPFGYYSEHFSGLSFDYRGQGTLVTVSS
notes: Biparatopic anti-IL-13 construct of two VHHs, Pichia pastoris, FLAG3-HIS6-tagged; also called F0107004B02-35GS-F0107004B06; not shown: FLAG3-HIS6 tag
IC50, TF1 proliferation assay, 200 pM hIL13 (human IL-13 [24]): 2e-11 M | IC50, TF1 proliferation assay, 200 pM cyno IL13 (cyno IL-13 [27]): 2.5e-10 M | IC50, IL-13 induced A549 eotaxin release assay (human IL-13 [28]): 0.21 nM | IC50, IL-13 induced A549 eotaxin release assay (cyno IL-13 [29]): 0.15 nM | % inhibition (human IL-13 [25]): 99% | IC50 (human IL-13 [25]): 0.31 nM | % inhibition (human IL-13 [26]): 100% | IC50 (human IL-13 [26]): 3 nM

— patent publication US20220177564A1 (Ablynx, published 2022)
